Laboratory results from article PMC4477864.

What was measured:
[1] = biological target: CENP-F N558 (amino acids 1–558) (human); test: sucrose gradient sedimentation + SEC
[2] = biological target: tubulin purified from cow brain (phosphocellulose-purified), assembled as vinblastine-induced curls, (cow) (UniProt Q2T9S0); test: co-sedimentation
[3] = biological target: subtilisin-treated Taxol-stabilized MTs (S-MTs) (cow) (UniProt Q2T9S0); test: TIRF microscopy of MT-associated GFP fluorescence
subtilisin-treated Taxol-stabilized MTs (S-MTs) (cow), sequence (Q2T9S0 whole entry, looked up): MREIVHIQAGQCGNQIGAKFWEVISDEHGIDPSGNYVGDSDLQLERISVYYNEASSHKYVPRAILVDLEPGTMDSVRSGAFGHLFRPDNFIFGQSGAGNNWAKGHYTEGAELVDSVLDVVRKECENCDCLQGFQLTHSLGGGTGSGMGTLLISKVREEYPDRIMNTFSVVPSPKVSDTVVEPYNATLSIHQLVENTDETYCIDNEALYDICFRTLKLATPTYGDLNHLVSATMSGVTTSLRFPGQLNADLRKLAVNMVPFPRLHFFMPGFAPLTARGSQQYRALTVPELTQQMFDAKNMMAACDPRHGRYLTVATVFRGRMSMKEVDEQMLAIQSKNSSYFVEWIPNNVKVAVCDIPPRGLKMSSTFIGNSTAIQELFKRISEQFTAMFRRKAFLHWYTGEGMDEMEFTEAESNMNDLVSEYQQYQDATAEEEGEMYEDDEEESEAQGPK

Row | stoichiometry N [1] | Kd [2] [nM] | fold lower KD than for Tx-MTs [2] [fold] | fold stronger binding than to Tx-MTs [2] [fold] | fold reduction of MT-associated GFP fluorescence against untreated MTs [3] [fold] | Substance
1 | 2 | 16 | > 5 | < 2 |  | CENP-F N558 (amino acids 1–558) (domain or fragment)
2 |  |  |  |  | 8 | N436-sfGFP (CENP-F amino acids 1–436 fused to super-folding GFP) (domain or fragment)
